How the values were obtained:
Test in all cases: pull-down
[1] = biological target: T1, FLAG-Swd1 (S. cerevisiae, UniProt P39706 1-426)
T1 sequence: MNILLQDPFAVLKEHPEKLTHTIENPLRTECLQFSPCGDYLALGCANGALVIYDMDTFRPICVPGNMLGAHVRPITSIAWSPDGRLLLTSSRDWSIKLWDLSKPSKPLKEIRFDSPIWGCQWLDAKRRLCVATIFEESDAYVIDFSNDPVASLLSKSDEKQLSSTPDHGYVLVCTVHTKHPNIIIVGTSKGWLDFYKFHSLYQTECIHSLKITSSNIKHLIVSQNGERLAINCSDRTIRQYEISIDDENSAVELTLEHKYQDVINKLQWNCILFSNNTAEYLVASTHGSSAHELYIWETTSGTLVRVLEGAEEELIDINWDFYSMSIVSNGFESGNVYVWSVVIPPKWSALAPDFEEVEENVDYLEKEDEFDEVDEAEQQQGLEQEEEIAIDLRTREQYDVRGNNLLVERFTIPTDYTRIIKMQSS

[2] = biological target: T2, FLAG-Spp1 (wild type) (S. cerevisiae, UniProt Q03012 1-353)
T2 sequence: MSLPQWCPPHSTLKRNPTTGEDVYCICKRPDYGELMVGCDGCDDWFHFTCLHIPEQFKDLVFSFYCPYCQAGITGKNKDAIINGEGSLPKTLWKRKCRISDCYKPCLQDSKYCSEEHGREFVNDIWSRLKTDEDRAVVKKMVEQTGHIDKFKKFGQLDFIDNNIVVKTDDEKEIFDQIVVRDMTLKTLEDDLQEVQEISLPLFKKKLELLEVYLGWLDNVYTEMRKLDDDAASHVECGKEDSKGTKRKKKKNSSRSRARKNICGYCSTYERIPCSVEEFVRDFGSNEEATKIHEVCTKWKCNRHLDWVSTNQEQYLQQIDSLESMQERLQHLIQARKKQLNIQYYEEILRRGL

[3] = biological target: T3, FLAG-Swd2 (S. cerevisiae, UniProt P36104 1-329)
T3 sequence: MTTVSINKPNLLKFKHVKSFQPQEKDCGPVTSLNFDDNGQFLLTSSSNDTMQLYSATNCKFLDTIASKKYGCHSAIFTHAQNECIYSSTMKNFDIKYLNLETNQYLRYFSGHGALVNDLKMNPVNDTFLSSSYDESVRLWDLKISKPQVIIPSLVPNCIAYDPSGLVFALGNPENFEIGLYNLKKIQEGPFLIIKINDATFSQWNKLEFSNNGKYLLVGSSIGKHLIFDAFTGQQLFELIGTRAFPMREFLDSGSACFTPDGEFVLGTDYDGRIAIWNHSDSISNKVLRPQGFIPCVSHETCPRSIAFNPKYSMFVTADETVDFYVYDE

B1: GST-tagged Set1 fragment, residues 1–123 (domain or fragment)
chain: MSNYYRRAHASSGSYRQPQEQPQYSRSGHYQYSNGHSHQQYSSQYNQRRRYNHNDGTRRRYNDDRPHSSNNASTRQYYATNNSQSGPYVNKKSDISSRRGMSQSRYSNSNVHNTLASSSGSLP
binding result [1]: binds

B2: GST-tagged n-SET fragment (Set1 residues 762–937) (domain or fragment)
chain: MDLQNAIKDEEDMLILKQLLSTYTPTVTPETSAALEYKIWQSRRKVLEEEKASDWQIELNGTLFDSELQPGSSFKAEGFRKIADKLKINYLPHRRRVHQPLNTVNIHNERNEYTPELCQREESSNKEPSDSVPQEVSSSRDNRASNRRFQQDIEAQKAAIGTESELLSLNQLNKRK
binding result [2]: binds

B3: GST-tagged Set1 fragment, residues 124–229 (domain or fragment)
chain: TESALLLQQRPPSVLRYNTDNLKSKFHYFDPIKGEFFNKDKMLSWKATDKEFSETGYYVVKELQDGQFKFKIKHRHPEIKASDPRNENGIMTSGKVATHRKCRNSL
binding result [3]: binds

— paper PMC6265457 (Nucleic Acids Research, 2018)
